Assay results reported in publication PMC4868757, “PDIP46 (DNA polymerase δ interacting protein 46) is an activating factor for human DNA polymerase δ” (Oncotarget, 2016).

Key:
[1] = molecular target: T1, His-tagged PDIP46 (human, UniProt Q9BY77 1-421); experiment: pull-down; GST fusion protein incubated with the test protein in 50 mM Tris-HCl pH 7.8, 1 mM EDTA, 150 mM NaCl, 0.1% NP-40, 0.2 mM PMSF, 1 h at 4°C; captured on glutathione beads, washed 8 times; western blot of the test protein; settings: both partners purified
T1 construct: PDIP46 (SKAR, POLDIP3), human; Expressed in the pTacTac vector with eight histidine residues added at its N-terminus; also called his-PDIP46; source: E. coli BL21DE3 (pLysS), purified (Ni-NTA agarose); not shown: His8, N-terminal, kept
T1 sequence (looked up): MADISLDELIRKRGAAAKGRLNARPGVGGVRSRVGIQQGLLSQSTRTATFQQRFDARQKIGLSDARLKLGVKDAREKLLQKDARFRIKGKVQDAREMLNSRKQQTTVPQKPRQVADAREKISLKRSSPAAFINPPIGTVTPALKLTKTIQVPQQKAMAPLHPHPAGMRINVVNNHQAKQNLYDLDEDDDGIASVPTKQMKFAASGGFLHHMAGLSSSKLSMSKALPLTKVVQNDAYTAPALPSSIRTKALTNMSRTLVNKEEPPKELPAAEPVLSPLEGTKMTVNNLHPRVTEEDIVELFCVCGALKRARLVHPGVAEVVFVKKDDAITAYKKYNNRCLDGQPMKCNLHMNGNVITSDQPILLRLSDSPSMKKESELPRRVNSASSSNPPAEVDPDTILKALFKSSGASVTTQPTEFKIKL

[2] = molecular target: DNA polymerase delta (Pol δ4) (Homo sapiens, UniProt P28340); experiment: polymerase activity stimulation assay
DNA polymerase delta (Pol δ4), sequence (P28340 whole entry, stated change not applied, chain 1 of 4, the tested form may be a part): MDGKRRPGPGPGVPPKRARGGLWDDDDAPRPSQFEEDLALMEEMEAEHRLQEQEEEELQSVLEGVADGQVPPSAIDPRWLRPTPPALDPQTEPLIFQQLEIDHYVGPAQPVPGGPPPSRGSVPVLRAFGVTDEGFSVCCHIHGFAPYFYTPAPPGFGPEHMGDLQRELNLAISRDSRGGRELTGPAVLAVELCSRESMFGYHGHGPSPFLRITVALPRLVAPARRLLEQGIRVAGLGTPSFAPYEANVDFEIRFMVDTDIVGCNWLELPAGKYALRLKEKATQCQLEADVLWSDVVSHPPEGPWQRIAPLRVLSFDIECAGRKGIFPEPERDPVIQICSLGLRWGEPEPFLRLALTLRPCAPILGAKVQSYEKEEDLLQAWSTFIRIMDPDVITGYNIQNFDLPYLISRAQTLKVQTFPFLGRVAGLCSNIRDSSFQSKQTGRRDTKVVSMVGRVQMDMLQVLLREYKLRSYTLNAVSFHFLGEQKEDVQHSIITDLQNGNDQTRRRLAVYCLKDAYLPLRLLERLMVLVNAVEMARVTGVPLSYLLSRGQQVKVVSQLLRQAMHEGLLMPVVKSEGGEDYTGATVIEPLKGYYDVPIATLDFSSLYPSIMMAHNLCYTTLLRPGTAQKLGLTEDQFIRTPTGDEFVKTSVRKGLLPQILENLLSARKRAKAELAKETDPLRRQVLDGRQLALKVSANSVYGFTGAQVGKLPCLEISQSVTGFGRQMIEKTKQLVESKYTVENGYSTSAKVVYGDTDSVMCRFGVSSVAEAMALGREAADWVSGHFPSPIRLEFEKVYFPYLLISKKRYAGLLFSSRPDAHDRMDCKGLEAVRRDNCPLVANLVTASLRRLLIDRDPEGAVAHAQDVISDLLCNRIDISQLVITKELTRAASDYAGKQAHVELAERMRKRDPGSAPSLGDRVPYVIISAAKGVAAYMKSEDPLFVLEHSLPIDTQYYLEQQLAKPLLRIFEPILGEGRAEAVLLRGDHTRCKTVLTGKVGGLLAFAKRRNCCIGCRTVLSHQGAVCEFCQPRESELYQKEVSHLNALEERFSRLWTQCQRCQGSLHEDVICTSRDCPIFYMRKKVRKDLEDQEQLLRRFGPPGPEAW
DNA polymerase delta (Pol δ4), sequence (P49005 whole entry, stated change not applied, chain 2 of 4, further chain, the tested form may be a part): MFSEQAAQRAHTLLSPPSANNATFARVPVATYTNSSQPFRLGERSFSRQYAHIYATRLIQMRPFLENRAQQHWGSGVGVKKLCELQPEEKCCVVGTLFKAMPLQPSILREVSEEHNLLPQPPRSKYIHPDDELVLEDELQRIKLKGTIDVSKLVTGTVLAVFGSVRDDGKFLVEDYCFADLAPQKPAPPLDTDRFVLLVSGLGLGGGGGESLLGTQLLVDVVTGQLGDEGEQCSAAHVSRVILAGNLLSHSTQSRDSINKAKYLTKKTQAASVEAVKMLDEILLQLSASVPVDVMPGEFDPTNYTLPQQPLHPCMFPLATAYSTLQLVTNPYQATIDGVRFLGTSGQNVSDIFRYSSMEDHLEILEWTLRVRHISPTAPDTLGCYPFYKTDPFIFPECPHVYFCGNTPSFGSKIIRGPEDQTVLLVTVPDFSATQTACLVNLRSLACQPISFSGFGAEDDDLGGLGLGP
DNA polymerase delta (Pol δ4), sequence (Q15054 2-466, stated change not applied, chain 3 of 4, further chain): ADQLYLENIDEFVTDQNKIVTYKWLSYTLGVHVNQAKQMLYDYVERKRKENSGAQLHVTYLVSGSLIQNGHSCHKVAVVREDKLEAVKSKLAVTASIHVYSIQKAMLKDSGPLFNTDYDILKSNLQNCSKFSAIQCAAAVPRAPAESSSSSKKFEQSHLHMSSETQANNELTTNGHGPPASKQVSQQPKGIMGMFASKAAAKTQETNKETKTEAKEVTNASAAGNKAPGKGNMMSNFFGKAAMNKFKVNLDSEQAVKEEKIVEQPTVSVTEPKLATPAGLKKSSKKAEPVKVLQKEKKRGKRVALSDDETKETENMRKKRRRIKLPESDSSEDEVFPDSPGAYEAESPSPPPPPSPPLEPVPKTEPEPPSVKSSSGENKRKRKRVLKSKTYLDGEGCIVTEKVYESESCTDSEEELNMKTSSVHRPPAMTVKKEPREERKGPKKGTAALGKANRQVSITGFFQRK
DNA polymerase delta (Pol δ4), sequence (Q9HCU8 whole entry, stated change not applied, chain 4 of 4, further chain, the tested form may be a part): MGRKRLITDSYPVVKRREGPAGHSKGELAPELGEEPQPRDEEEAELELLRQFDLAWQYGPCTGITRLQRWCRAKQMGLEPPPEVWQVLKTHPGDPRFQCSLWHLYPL

[3] = molecular target: T2, Human PCNA, recombinant (human, UniProt P12004 1-261); experiment: pull-down; GST fusion protein incubated with the test protein in 50 mM Tris-HCl pH 7.8, 1 mM EDTA, 150 mM NaCl, 0.1% NP-40, 0.2 mM PMSF, 1 h at 4°C; captured on glutathione beads, washed 8 times; western blot of the test protein; settings: both partners purified
T2 construct: PCNA, human; source: E. coli, purified
T2 sequence (P12004 whole entry, the tested form may be a part): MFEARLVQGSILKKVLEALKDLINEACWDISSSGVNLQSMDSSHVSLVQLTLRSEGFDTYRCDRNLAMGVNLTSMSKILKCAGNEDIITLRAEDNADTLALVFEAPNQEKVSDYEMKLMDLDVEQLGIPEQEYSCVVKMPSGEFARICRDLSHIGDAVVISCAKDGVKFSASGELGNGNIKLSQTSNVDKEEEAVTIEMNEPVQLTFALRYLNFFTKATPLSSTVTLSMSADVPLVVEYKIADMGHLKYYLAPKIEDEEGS

[4] = molecular target: T3, Recombinant human DNA polymerase δ holoenzyme (Pol δ4), heterotetramer of p125, p50, p68 and p12 (human, UniProt P28340 1-1107; P49005 1-469; Q15054 1-466; Q9HCU8 1-107); experiment: as above; settings: both partners purified
T3 construct: p125, catalytic subunit of human Pol δ; p50 subunit of human Pol δ; p68 subunit of human Pol δ; p12 subunit of human Pol δ; also called Pol δ heterotetramer; source: insect cells, purified to near homogeneity; copies: + + +
T3 sequence (P28340 whole entry, stated change not applied, chain 1 of 4): as the sequence (P28340 whole entry, stated change not applied, chain 1 of 4, the tested form may be a part) above
T3 sequence (P49005 whole entry, stated change not applied, chain 2 of 4): as the sequence (P49005 whole entry, stated change not applied, chain 2 of 4, further chain, the tested form may be a part) above
T3 sequence (Q15054 whole entry, stated change not applied, chain 3 of 4): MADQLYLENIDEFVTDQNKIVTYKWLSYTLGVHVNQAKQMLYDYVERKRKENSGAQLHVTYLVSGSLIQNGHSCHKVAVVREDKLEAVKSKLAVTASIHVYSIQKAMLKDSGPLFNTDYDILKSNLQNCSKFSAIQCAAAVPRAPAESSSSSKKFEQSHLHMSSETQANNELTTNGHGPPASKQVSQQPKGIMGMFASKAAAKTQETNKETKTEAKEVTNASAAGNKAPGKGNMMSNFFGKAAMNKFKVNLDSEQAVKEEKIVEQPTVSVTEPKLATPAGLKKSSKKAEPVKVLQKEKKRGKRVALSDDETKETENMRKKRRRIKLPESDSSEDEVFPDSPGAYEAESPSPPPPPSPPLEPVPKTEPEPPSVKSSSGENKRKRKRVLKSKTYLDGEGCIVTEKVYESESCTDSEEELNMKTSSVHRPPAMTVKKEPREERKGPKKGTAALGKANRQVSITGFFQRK
T3 sequence (Q9HCU8 whole entry, stated change not applied, chain 4 of 4): as the sequence (Q9HCU8 whole entry, stated change not applied, chain 4 of 4, further chain, the tested form may be a part) above

[5] = molecular target: T4, His-tagged p50 subunit of Pol δ (human, UniProt P49005 1-469); experiment: as above; settings: both partners purified
T4 construct: p50 subunit of human DNA polymerase δ; Expressed in the PET33b vector; also called his-p50; source: E. coli BL21DE3 (pLysS), purified (Ni-NTA agarose)
T4 sequence (P49005 whole entry, stated change not applied): as the sequence (P49005 whole entry, stated change not applied, chain 2 of 4, further chain, the tested form may be a part) above

B1: GST-p50 deletion construct containing residues 252-400 of p50 (domain or fragment, human, UniProt P49005 252-400, looked up)
chain: TQSRDSINKAKYLTKKTQAASVEAVKMLDEILLQLSASVPVDVMPGEFDPTNYTLPQQPLHPCMFPLATAYSTLQLVTNPYQATIDGVRFLGTSGQNVSDIFRYSSMEDHLEILEWTLRVRHISPTAPDTLGCYPFYKTDPFIFPECPH
notes: Subcloned in pGEX-5X-3; source: E. coli BL21DE3 (pLysS), purified (glutathione beads)
Does B1 bind [1]?
Result: binds

B2: PDIP46 (protein)
chain: ADISLDELIRKRGAAAKGRLNARPGVGGVRSRVGIQQGLLSQSTRTATFQQRFDARQKIGLSDARLKLGVKDAREKLLQKDARFRIKGKVQDAREMLNSRKQQTTVPQKPRQVADAREKISLKRSSPAAFINPPIGTVTPALKLTKTIQVPQQKAMAPLHPHPAGMRINVVNNHQAKQNLYDLDEDDDGIASVPTKQMKFAASGGFLHHMAGLSSSKLSMSKALPLTKVVQNDAYTAPALPSSIRTKALTNMSRTLVNKEEPPKELPAAEPVLSPLEGTKMTVNNLHPRVTEEDIVELFCVCGALKRARLVHPGVAEVVFVKKDDAITAYKKYNNRCLDGQPMKCNLHMNGNVITSDQPILLRLSDSPSMKKESELPRRVNSASSSNPPAEVDPDTILKALFKSSGASVTTQPTEFKIKL
B2 was tested. Which Kd [2] did it give?
The Kd was 34 nM.

B3: GST-PDIP46 N-terminal fragment (residues 1-141) (domain or fragment, human, UniProt Q9BY77 1-141, looked up)
chain: MADISLDELIRKRGAAAKGRLNARPGVGGVRSRVGIQQGLLSQSTRTATFQQRFDARQKIGLSDARLKLGVKDAREKLLQKDARFRIKGKVQDAREMLNSRKQQTTVPQKPRQVADAREKISLKRSSPAAFINPPIGTVTP
notes: as for B1
Does B3 bind [3]?
Result: binds

B4: GST-PDIP46 (DNA polymerase δ interacting protein 46), wild type, full length (natural protein, human, UniProt Q9BY77 1-421, looked up)
chain: MADISLDELIRKRGAAAKGRLNARPGVGGVRSRVGIQQGLLSQSTRTATFQQRFDARQKIGLSDARLKLGVKDAREKLLQKDARFRIKGKVQDAREMLNSRKQQTTVPQKPRQVADAREKISLKRSSPAAFINPPIGTVTPALKLTKTIQVPQQKAMAPLHPHPAGMRINVVNNHQAKQNLYDLDEDDDGIASVPTKQMKFAASGGFLHHMAGLSSSKLSMSKALPLTKVVQNDAYTAPALPSSIRTKALTNMSRTLVNKEEPPKELPAAEPVLSPLEGTKMTVNNLHPRVTEEDIVELFCVCGALKRARLVHPGVAEVVFVKKDDAITAYKKYNNRCLDGQPMKCNLHMNGNVITSDQPILLRLSDSPSMKKESELPRRVNSASSSNPPAEVDPDTILKALFKSSGASVTTQPTEFKIKL
notes: PDIP46 (SKAR, POLDIP3), human, full-length; Subcloned in pGEX-5X-3; The functional rows used untagged PDIP46 (his-Sumo fusion, tags removed by Sumo protease, Mono S), not this GST fusion; also called GST-p46; SKAR; source: E. coli BL21DE3 (pLysS), purified (glutathione beads)
Does B4 bind [4]?
Result: binds

Does B4 bind [5]?
Result: binds
